Measurements: PMC5428420, “The trimer interface in the quaternary structure of the bifunctional prokaryotic FAD synthetase from Corynebacterium ammoniagenes” (Scientific Reports, 2017)
Read-outs that look alike come from different tables or passages of the source.

How the values were obtained:
[1] = system: CaFADS RFK activity; conditions: 25 °C
Experimental: The CaFADS RFK activity was measured at 25 °C in 500 µl of 20 mM PIPES, 0.8 mM MgCl2, pH 7.0, containing 0.5–45 µM RF and 10–500 µM ATP. Reactions were initiated by addition of ~20 nM of the monomeric enzyme. After 1 min incubation at 25 °C, the reactions were stopped by boiling the mixtures for 5 min. The flavin composition in the supernatant was determined using an Alliance HPLC system (Waters), equipped with a 2707 autosampler and an HSST3 column (4.6 × 150 mm, 3.5 µm, Waters), preceded by a precolumn (4.6 × 20 mm, 3.5 µm, Waters). Flavins (FMN or FAD) produced from RF were quantified using their corresponding standard curves, as previously described[21].
When an excess of RF inhibited the RFK activity, the experimental data were interpreted through a model describing the substrate inhibition of a bi-substrate mechanism[26]. In these situations, the errors in apparent K m and k cat (^app K m and ^app k cat) increased as the inhibition constant (K i) approached K m ^S. Experiments were performed in triplicate.

[2] = target: CaFADS FMNAT activity (Corynebacterium ammoniagenes, UniProt Q59263); test: Steady-state kinetics of the FMNAT activity (FMN → FAD), continuous fluorometric assay; format: biochemical; conditions: 25 °C, 20 mM PIPES pH 7.0, 10 mM MgCl2
Experimental: The CaFADS FMNAT activity was fluorometrically measured using a continuous assay. […] A Cary Eclipse spectrophotofluorometer with excitation and emission wavelengths of 420 nm and 530 nm, respectively, was used. FAD and FMN fluorescence were individually calibrated using standard solutions and the data were analyzed as previously described.

[3] = target: T1, CaFADS:ADP:Mg^2+ complex (Corynebacterium ammoniagenes, UniProt Q59263); conditions: FMN binding to preformed CaFADS:ADP:Mg2+ complex; ITC, 25 °C, pH 7.0, 10 mM MgCl2; ref [16], [21]; read-out: K d FADS:ADP:FMN, RFK site; cited from earlier work
T1 construct: made in house; host or cells: E. coli BL21(DE3)

[4] = target: T2, CaFADS (Corynebacterium ammoniagenes, UniProt Q59263); conditions: ITC; in brackets; ref [16], [21]; cited from earlier work
[5] = target: T2, CaFADS; parameters: made in house; host or cells: E. coli BL21(DE3); conditions: ITC, ref [16], [21], cited from earlier work
[6] = target: T2, CaFADS; parameters: made in house; host or cells: E. coli BL21(DE3); conditions: ITC, ref [16], [21], cited from earlier work; remark: listed apart in the source
[7] = target: T2, CaFADS; parameters: made in house; host or cells: E. coli BL21(DE3); conditions: ITC, ref [16], [21], cited from earlier work; remark: listed apart in the source
[8] = RF concentration giving ~80% of maximal activity, pH 7.0, 0.8 mM MgCl2

B1: WT: wild-type bifunctional FAD synthetase from Corynebacterium ammoniagenes (CaFADS) (protein)
chain: MDIWYGTAAVPKDLDNSAVTIGVFDGVHRGHQKLINATVEKAREVGAKAIMVTFDPHPVSVFLPRRAPLGITTLAERFALAESFGIDGVLVIDFTRELSGTSPEKYVEFLLEDTLHASHVVVGANFTFGENAAGTADSLRQICQSRLTVDVIDLLDDEGVRISSTTVREFLSEGDVARANWALGRHFYVTGPVVRGAGRGGKELGFPTANQYFHDTVALPADGVYAGWLTILPTEAPVSGNMEPEVAYAAAISVGTNPTFGDEQRSVESFVLDRDADLYGHDVKVEFVDHVRAMEKFDSVEQLLEVMAKDVQKTRTLLAQDVQAHKMAPETYFLQAES
K m ATP RFK activity [1, 8]: 28.2 ± 3.9 µM | k cat RFK activity as function of ATP [1, 8]: 155 ± 5 min⁻¹ | k cat/K m ATP RFK activity [1, 8]: 5.5 ± 0.8 min⁻¹ µM⁻¹ | k cat (apparent) RFK activity ([1]; saturating ATP, apparent constant (RF substrate inhibition), 20 mM PIPES pH 7.0, 0.8 mM MgCl2): 408 ± 230 min⁻¹ | K m RF (apparent) RFK activity ([1]; saturating ATP, apparent constant, 20 mM PIPES pH 7.0, 0.8 mM MgCl2): 11.7 ± 3.0 µM | k cat/K m RF RFK activity ([1]; saturating ATP, apparent, pH 7.0, 0.8 mM MgCl2): 34.9 ± 21.6 min⁻¹ µM⁻¹ | K m ATP FMNAT activity [2]: 22.4 ± 2.0 µM | K m FMN FMNAT activity [2]: 10.1 ± 1.0 µM | k cat FMNAT activity [2]: 5.5 ± 0.5 min⁻¹ | k cat/K m ATP FMNAT activity [2]: 0.25 ± 0.03 min⁻¹ µM⁻¹ | k cat/K m FMN FMNAT activity [2]: 0.54 ± 0.07 min⁻¹ µM⁻¹ | Kd [3]: 900 ± 100 nM | stoichiometry FADS:RF [4]: 2 | Kd ([5]; 25 °C, pH 7.0, 10 mM MgCl2, average K d,av of two sites, read-out: K d FADS:ATP): 30.2 µM | stoichiometry FADS:ATP ([5]; in brackets): 2 | Kd ([6]; 25 °C, pH 7.0, 10 mM MgCl2, read-out: K d FADS:FAD): 740 nM | stoichiometry FADS:FAD ([6]; in brackets): 1 | Kd ([7]; 25 °C, pH 7.0, 10 mM MgCl2, read-out: K d FADS:FMN): 7.8 µM | stoichiometry FADS:FMN ([7]; in brackets): 1
